Test results published in article PMC7935953, “Insights on autophagosome–lysosome tethering from structural and biochemical characterization of human autophagy factor EPG5” (Communications Biology, 2021).
Where no end group is shown, it is not given here.

Assays:
GABARAP = target: T1, GABARAP (Homo sapiens, UniProt O95166); assay: GST pull-down of hEPG5 (wild type and mutants) with GST-GABARAP bait; assay type: binding; conditions: anti-FLAG western blot, compared to wild-type hEPG5, triplicates
T1 construct: made in house; host or cells: E. coli (T7 Express)
T1 sequence (O95166 whole entry): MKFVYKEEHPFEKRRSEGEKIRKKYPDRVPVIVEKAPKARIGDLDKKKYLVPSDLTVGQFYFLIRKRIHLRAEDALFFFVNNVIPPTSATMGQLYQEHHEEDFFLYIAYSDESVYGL
Procedure: (§1) For GST pull-down analysis, N-terminally GST-tagged LC3 and GABARAP proteins were expressed in Escherichia coli (T7 Express) cells. The cells were induced with 1 mM isopropyl β-d-1-thiogalacpyranoside [IPTG] for 4 h at 25 °C. The cell pellets were resuspended in 25 mL buffer E (50 mM Tris pH 8.0, 150 mM NaCl, and 1 mM PMSF). Cells were then sonicated for four cycles consisting of 1 min sonication followed by 2 min cooling on ice, with duty cycle set to 50% and output control at 5. Cell lysate was then centrifuged at 20,950 × g for 40 min at 4 °C. Supernatant was incubated for 1 h at 4 °C with glutathione resin (50% slurry, GenScript) pre-equilibrated with buffer E, while gently inverting. Resin was returned to the column and washed with buffer E. Proteins were eluted with 10 mM reduced glutathione (GoldBio) in buffer F (50 mM Tris pH 8.0, 150 mM NaCl). Free glutathione was removed by dialysis in buffer F and protein concentration was measured by spectrophotometry (NanoDrop, Thermo Scientific). Glycerol was added to a final concentration of 5%, then solutions were aliquoted and stored at −70 °C.
Pulldowns were performed with a 50 µL slurry of glutathione resin (50% slurry, GenScript). The resin was equilibrated with buffer N (50 mM Tris pH 8.0, 150 mM NaCl, 5% glycerol, 0.01% Tween20, and 0.5 mM DTT) and the beads were incubated with equal amounts (200–240 µg) of purified GST, GST-LC3A/B/C, and GST-GABARAP/L1/L2 bait for 10 min at 4 °C with gentle inversion. The tubes were centrifuged at 500 × g for 2 min, followed by removal of excess bait protein in the supernatant. The resin was then incubated with equal amounts (25–30 µg) of purified His-FLAG-hEPG5, truncated hEPG5 or its corresponding mutants (W550A, W567A, W550A/W567A, F794A, or Q336R). The tubes were once again centrifuged at 500 × g for 2 min, followed by removal of the supernatant. The resin was washed with 1 mL buffer N, centrifuged at 500 × g for 2 min, followed by removal of the excess buffer with five washes. After the final wash and removal of the supernatant, 50 µL 2× SDS loading dye was added to each tube. The tubes were then heated at 65 °C for 10 min, loaded onto two 6–15% gradient SDS–PAGE gels, and stained with Coomassie Blue. For western blots, samples were transferred from a 6–15% gradient SDS–PAGE gel to a nitrocellulose membrane and blocked with Odyssey Blocking Buffer (LI-COR). Mouse anti-FLAG was used as the primary antibody (1:2000; Sigma-Aldrich) and donkey anti-mouse IRDye 680LT as the secondary antibody (1:7500; LI-COR) for visualization on a ChemiDoc Imager (Bio-Rad). Experiments were performed in triplicates.
All experiments were performed in triplicates. ITC data represents means or means ± SEM. Intensity of His-FLAG-hEPG5, GST (control), and GST-LC3/GABARAP subfamily proteins in pull-down assays was quantified using Bio-Rad Image Lab Software v6.0. Statistics were performed using Prism 7 (GraphPad).

[1] = Differential scanning fluorimetry (thermal shift assay) of hEPG5; assay type: physicochemical; conditions: 0.4 mg/mL protein, 10× Sypro Orange, 50 mM Tris pH 8.0, 150 mM NaCl, maximum of first derivative, triplicates
Procedure: Purified wild type His-FLAG-hEPG5 and His-FLAG-hEPG5^Q336R at 0.4 mg/mL were mixed with 10× Sypro Orange dye in buffer F in a final volume of 25 µL. The fluorescence was measured using the MiniOpticon Real-Time PCR system in triplicates. Melting temperature was calculated using the maximum of the first derivative with Prism 7 (GraphPad).

LC3C = target: T2, LC3C (Homo sapiens, UniProt Q9BXW4); assay: ITC of hEPG5 LIR peptides titrated into His-LC3C; assay type: binding; conditions: 0.6 mM peptide into 0.06 mM His-LC3C, 20 steps, 25 °C, 50 mM Tris pH 7.0, 25 mM NaCl, one-site model, triplicates
T2 construct: made in house; host or cells: E. coli (T7 Express)
T2 sequence (Q9BXW4 whole entry): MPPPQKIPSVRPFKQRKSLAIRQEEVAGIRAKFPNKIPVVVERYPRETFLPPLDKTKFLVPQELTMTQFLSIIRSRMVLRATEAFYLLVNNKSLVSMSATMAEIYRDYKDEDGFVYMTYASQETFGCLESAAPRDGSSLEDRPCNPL
Procedure: (§2) For ITC studies, N-terminally His-tagged LC3 and GABARAP proteins were expressed in E. coli (T7 Express) cells. The cells were induced with 1 mM IPTG for 4 h at 25 °C. The cell pellets were resuspended, sonicated, and centrifuged, as described above with buffer G (50 mM Tris pH 7.0, 150 mM NaCl, and 2 mM PMSF). The supernatant was incubated with HisPur^TMNi-NTA resin (Thermo Scientific) pre-equilibrated with buffer G at 4 °C for 1 h. The resin was washed five times with buffer H (50 mM Tris pH 7.0, 150 mM NaCl) and subsequently ten times with buffer H containing 30 mM imidazole. The bound proteins were eluted with buffer H containing 100 mM imidazole once, then 300 mM imidazole for four times, and 500 mM imidazole once. […]
(§3) ITC experiments of hEPG5-LIR1 peptide titrating into His-LC3/GABARAP proteins were performed using ITC200 (GE Healthcare now Malvern Panalytical), while experiments of hEPG5-LIR2 peptide titrating into His-LC3/GABARAP proteins were performed using MicroCal PEAQ-ITC (Malvern Panalytical). […] The ITC data were analyzed with one-site binding model using Origin 7.0 (OriginLab). […]
(§4) All experiments were performed in triplicates. […] Intensity of His-FLAG-hEPG5, GST (control), and GST-LC3/GABARAP subfamily proteins in pull-down assays was quantified using Bio-Rad Image Lab Software v6.0. […]

LC3B = target: T3, LC3B (Homo sapiens, UniProt Q9GZQ8); assay: ITC of hEPG5 LIR peptides titrated into His-LC3B; assay type: binding; conditions: 0.6 mM peptide into 0.06 mM His-LC3B, 20 steps, 25 °C, 50 mM Tris pH 7.0, 25 mM NaCl, one-site model, mean of triplicates
T3 construct: made in house; host or cells: E. coli (T7 Express)
Procedure: as §2, §3, §4

[2] = tested on: GABARAP subfamily (GABARAP, GABARAPL1, and GABARAPL2); assay: GST pull-down of hEPG5, average over GABARAP subfamily baits; assay type: binding, human
Procedure: as §1
Pulldowns were performed with a 50 µL slurry of glutathione resin (50% slurry, GenScript). […]
as §4

Row | Substance | binding to GABARAP in GST pull-down, in words (GABARAP) | also measured
1 | hEPG5^F794A: hEPG5 mutant with mutation to the third putative LIR motif | binds GABARAP as strongly as wild-type hEPG5 | 
2 | hEPG5^Q336R: hEPG5 carrying the Vici syndrome mutation Gln336Arg | did not affect hEPG5’s ability to bind to GABARAP and other human ATG8 proteins | melting temperature higher than wild-type hEPG5 [1]: ~1.5 °C
3 | hEPG5^Δ1–548: hEPG5 truncation devoid of the region between the N-terminus and the two LIR motifs | precipitated by GABARAP at a higher level compared to wild-type hEPG5 | 
4 | hEPG5^Δ1770–2579: hEPG5 truncation mutant which excludes the entire C-terminal region | binds GABARAP equally well compared to wild-type hEPG5 | 
5 | W567A: hEPG5 mutant, first aromatic residue of LIR2 replaced by alanine | mildly | 
6 | W550A/W567A: hEPG5 double mutant of both tandem LIR motifs | completely abolished GABARAP binding | 
7 | W550A: hEPG5 mutant, first aromatic residue of LIR1 replaced by alanine | severely | 
8 | GSGTWTLVDEG [LIR1] |  | Kd with LC3C (LC3C): bind weakly; Kd with LC3B (LC3B): bind weakly
9 | hEPG5: recombinant full-length human EPG5, His-FLAG tagged, expressed in a baculovirus-insect cell system |  | hEPG5 precipitated by GABARAP subfamily compared to LC3 subfamily ([2]; fluorescence-based western blotting, triplicates): 2.5 times; Average Ratio of GABARAP Family: LC3 Family ([2]; hEPG5 binding ratio, average of 3 runs): 2.51
